Measurements from patent WO2011095604A1 (dated 2011).
Where no end group is shown, it is not given here.

T1: C2 domain of FVIII (Homo sapiens (Human), UniProt P00451 2192-2351)
T1 construct: Negative control
T1 sequence: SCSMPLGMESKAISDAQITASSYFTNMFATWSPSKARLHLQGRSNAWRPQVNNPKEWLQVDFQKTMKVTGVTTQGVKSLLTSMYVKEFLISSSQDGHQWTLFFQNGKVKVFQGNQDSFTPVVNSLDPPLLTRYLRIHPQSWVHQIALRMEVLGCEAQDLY


Assays:
recombinant FIX = target: T2, recombinant FIX (UniProt P00740 47-461); assay: BLI (Octet Red), biotinylated peptide on streptavidin sensor
T2 construct: Negative control; also called factor IX

C2 domain of FVIII = target: T1, C2 domain of FVIII; assay: as above

T2 sequence (P00740 47-461 limits assumed): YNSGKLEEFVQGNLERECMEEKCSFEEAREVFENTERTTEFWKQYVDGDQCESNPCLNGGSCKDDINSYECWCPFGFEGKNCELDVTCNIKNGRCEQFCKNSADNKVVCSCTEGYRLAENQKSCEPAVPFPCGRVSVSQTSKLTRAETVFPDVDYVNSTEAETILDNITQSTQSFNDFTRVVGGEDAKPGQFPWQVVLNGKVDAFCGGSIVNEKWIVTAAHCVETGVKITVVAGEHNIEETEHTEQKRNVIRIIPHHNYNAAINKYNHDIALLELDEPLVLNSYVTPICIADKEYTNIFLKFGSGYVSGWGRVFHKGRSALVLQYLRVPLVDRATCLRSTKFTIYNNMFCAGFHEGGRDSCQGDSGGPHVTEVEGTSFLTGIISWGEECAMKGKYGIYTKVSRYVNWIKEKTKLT

binding result (recombinant FIX)	binding result (C2 domain of FVIII)	Binder
no binding	no binding	QRIKGLHFATSMGYA (also: biotinylated (position not given here), random peptide of the Octet screening) [SEQ ID NO 14]
no binding	no binding	RVPLVDRATCLRSTKFTIYNN (also: biotinylated (position not given here), random peptide of the Octet screening) [SEQ ID NO 20]
no binding	no binding	RDERMKLIRNFSPIM (also: biotinylated (position not given here), random peptide of the Octet screening) [SEQ ID NO 7]
no binding	no binding	IADKEYTNIFLKFGSGYVS (also: biotinylated (position not given here), random peptide of the Octet screening) [SEQ ID NO 19]
no binding	no binding	TTWGMRIRLFERQAR (also: biotinylated (position not given here), random peptide of the Octet screening) [SEQ ID NO 2]
no binding	no binding	ISRWRLLMGKKSQHD (also: biotinylated (position not given here), random peptide of the Octet screening) [SEQ ID NO 18]
no binding	no binding	TERQMIHKIFALMSG (also: biotinylated (position not given here), random peptide of the Octet screening) [SEQ ID NO 9]
no binding	no binding	SPSWVRPSIMEWRMN (also: biotinylated (position not given here), random peptide of the Octet screening) [SEQ ID NO 5]
no binding	no binding	AYRPSTSREHWRRHW (also: biotinylated (position not given here), random peptide of the Octet screening) [SEQ ID NO 16]
no binding	no binding	IADKEYTNIFLKFGVSVLVDRATCLRSTKFTIYNN (also: biotinylated (position not given here), random peptide of the Octet screening) [SEQ ID NO 21]

Further lines, the binder ahead of its results:

Binder	binding result (recombinant FIX)	binding result (C2 domain of FVIII)
EPLMTMKMIRVMRKL (also: biotinylated (position not given here), random peptide of the Octet screening) [SEQ ID NO 8]	no binding	no binding
RMRMYSSLRAWKESA (also: biotinylated (position not given here), random peptide of the Octet screening) [SEQ ID NO 3]	no binding	no binding
EMMKPNYADLIMRKR (also: biotinylated (position not given here), random peptide of the Octet screening) [SEQ ID NO 10]	no binding	no binding
DMFKSVRQLMMSRGR (also: biotinylated (position not given here), random peptide of the Octet screening) [SEQ ID NO 13]	no binding	no binding
NKLTSGDRPGLWFMV (also: biotinylated (position not given here), random peptide of the Octet screening) [SEQ ID NO 6]	no binding	no binding
KKRDARTNYRYMAYS (also: biotinylated (position not given here), random peptide of the Octet screening) [SEQ ID NO 17]	no binding	no binding
SPWSWQRQMKKWTPQ (also: biotinylated (position not given here), random peptide of the Octet screening) [SEQ ID NO 15]	no binding	no binding
PIRIMIHSLIMNRPT (also: biotinylated (position not given here), random peptide of the Octet screening) [SEQ ID NO 4]	no binding	no binding
WKHHMRKAIPKYEGK (also: biotinylated (position not given here), random peptide of the Octet screening) [SEQ ID NO 12]	no binding	no binding
WCPFGFEGKNCELDVTCNIKNGRCEQFCKNSADNKVVCS (cysteine pairing not given here; also: biotinylated (position not given here), random peptide of the Octet screening) [SEQ ID NO 23]	no binding	no binding
EYISWEYC (also: biotinylated (position not given here), random peptide of the Octet screening) [SEQ ID NO 22]	no binding	no binding
LSGKNGPWVKMIMWG (also: biotinylated (position not given here), random peptide of the Octet screening) [SEQ ID NO 11]	no binding	no binding
